Key:
[1] = target: T1, human TLR4 and human MD-2 on transiently transfected HEK 293 cells (human, UniProt O00206 24-839; Q9Y6Y9 19-160); assay: FACS on transiently transfected HEK 293 cells, 7E3 at 10 µg/ml
T1 construct: whole, on cells; also called human TLR4/MD-2 complex
Protocol: (§1) FIGS. 24A-24F is a series of graphs depicting the specificity of the 7E3 monoclonal antibody for the TLR4/MD-2 complex. The specificity of the 7E3 antibody is shown by flow cytometry analysis of HEK 293 cells transiently transfected with either mock vector (FIG. 24A), human TLR4 (FIG. 24B), human TLR4 and human MD-2 (FIG. 24C), rabbit TLR4 and rabbit MD-2 (FIG. 24D), human TLR4 and rabbit MD-2 (FIG. 24E), or rabbit TLR4 and human MD-2 (FIG. 24F). Cells were incubated with the 7E3 monoclonal antibody (10 μg/ml), followed by an APC-coupled α-mouse (H+L) antibody.
(§2) HEK 293 cells were plated in 6 well plates at a density of 2.5×10⁵ cells/well in 2 ml culture medium containing 10% FBS. 16 hours post-plating, cells were transfected with 0.75 μg of the appropriate vector(s) using Fugene™ reagent (Roche) according to the manufacturer's guidelines. 48 hours post-transfection, cells were stained with the appropriate monoclonal antibody (as indicated in FIGS. 4A-4L) and an APC-coupled goat anti-mouse IgG (H+L) antibody (Molecular Probes) and analyzed using the FACScalibur in the FL-4 channel.

[2] = target: T2, human TLR4/MD-2 complex on the surface of transfected CHO cells (human, UniProt O00206 24-839; Q9Y6Y9 19-160); assay: flow cytometry, mock transfected vs. TLR4/MD-2 transfected cells
T2 construct: whole, on cells; also called TLR4/MD-2 transfected CHO cells; hTLR4/MD-2 transfected CHO cells
T2 sequence (O00206 24-839, chain 1 of 2): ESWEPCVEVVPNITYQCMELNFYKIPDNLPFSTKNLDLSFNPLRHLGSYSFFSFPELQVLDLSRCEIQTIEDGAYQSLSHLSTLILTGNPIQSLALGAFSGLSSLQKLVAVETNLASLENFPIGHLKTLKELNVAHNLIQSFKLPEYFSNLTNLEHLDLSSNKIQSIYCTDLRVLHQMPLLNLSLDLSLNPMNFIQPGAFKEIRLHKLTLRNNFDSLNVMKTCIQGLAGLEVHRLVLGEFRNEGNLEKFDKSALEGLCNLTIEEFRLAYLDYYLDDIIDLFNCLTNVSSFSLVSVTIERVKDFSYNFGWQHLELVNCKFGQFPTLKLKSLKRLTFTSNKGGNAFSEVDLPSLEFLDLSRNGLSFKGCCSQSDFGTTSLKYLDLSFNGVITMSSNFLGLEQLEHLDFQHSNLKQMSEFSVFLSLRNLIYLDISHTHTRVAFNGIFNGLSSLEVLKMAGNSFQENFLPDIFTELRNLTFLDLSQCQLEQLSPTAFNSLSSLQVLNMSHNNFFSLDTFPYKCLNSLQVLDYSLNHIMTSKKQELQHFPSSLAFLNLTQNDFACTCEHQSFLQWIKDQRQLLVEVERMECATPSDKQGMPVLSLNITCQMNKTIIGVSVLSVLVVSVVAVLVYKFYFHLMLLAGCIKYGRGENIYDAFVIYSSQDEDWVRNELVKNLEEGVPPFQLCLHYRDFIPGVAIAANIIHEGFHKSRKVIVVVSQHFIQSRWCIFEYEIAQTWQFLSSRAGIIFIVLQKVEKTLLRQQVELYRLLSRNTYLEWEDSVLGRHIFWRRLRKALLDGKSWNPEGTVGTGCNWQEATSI
T2 sequence (Q9Y6Y9 19-160, chain 2 of 2): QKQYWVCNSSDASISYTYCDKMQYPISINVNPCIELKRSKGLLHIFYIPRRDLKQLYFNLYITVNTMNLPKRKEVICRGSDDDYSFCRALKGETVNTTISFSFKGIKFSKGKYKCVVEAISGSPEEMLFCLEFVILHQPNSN

[3] = target: T3, human TLR4 alone in transfected HEK 293 cells (human, UniProt O00206 24-839); assay: FACS on HEK 293 cells transfected with human TLR4 alone
T3 construct: whole, on cells; also called TLR4 alone in transfected cell lysates
T3 sequence (O00206 24-839): as the sequence (O00206 24-839, chain 1 of 2) above
Protocol: as §1, §2

[4] = target: T2, human TLR4/MD-2 complex on the surface …; assay: flow cytometry on TLR4/MD-2 transfected CHO cells, against an isotype matched control MAb
From the text: FIG. 26 is a graph illustrating that the VH and VL nucleotide sequence of 7E3 expressed as a chimeric MAb (“chimeric 7E3”) is capable of binding specifically to the human TLR4/MD-2 complex on the surface of transfected CHO cells. Monoclonal antibody binding to TLR4/MD-2 transfected CHO cells is shown by flow cytometry using chimeric 7E3 or an isotype matched control MAb at the indicated concentrations.
(§3) Specific binding of MAb at the indicated concentration was detected using an APC-labeled goat-anti-human IgG (H+L) secondary antibody. An irrelevant isotype-matched IgG1 MAb was used as a control.

[5] = target: T1, human TLR4 and human MD-2 on …; assay: FACS on transiently transfected HEK 293 cells
Protocol: FIGS. 4A-4L are a series of graphs depicting the specificity of the 18H10 monoclonal antibody for MD-2. The specificity of the 18H10 antibody is shown by flow cytometry analysis of HEK 293 cells transiently transfected with either human TLR4 and human MD-2 (FIG. 4A, FIG. 4E and FIG. 4I); rabbit TLR4 and rabbit MD-2 (FIG. 4B, FIG. 4F and FIG. 4J); human TLR4 and rabbit MD-2 (FIG. 4C, FIG. 4G and FIG. 4K); or rabbit TLR4 and human MD-2 (FIG. 4D, FIG. 4H and FIG. 4L). Cells were incubated with either α-FLAG™ antibody (to detect TLR4 expression); α-C-myc antibody (to detect MD-2 expression) or the 18H10 monoclonal antibody, followed by an APC-coupled α-mouse (H+L) antibody.
FIGS. 12A-12L is a series of graphs depicting the specificity of the 16G7 monoclonal antibody for TLR4. […]
as §2, with “16 hours post-plating, cells were transfected with 0.75 μg of the appropriate vector(s) using Fugene™ reagent (Roche) according to the manufacturer's guidelines.” left out

[6] = target: T2, human TLR4/MD-2 complex on the surface …; assay: FACS of hybridoma supernatant on mock vs. TLR4/MD-2 transfected CHO cells
Protocol: Mice immunized with CHO cells expressing surface TLR4/MD-2 were monitored for specific serum titers. […] This strategy was chosen in order to minimize the response to non-specific CHO cellular antigens, while simultaneously maximizing the TLR4/MD-2-specific response. Screening by FACS of supernatants from hybridomas resulting from B cell/myeloma fusions was performed on mock transfected vs. TLR4/MD-2 transfected CHO cells.

[7] = target: T3, human TLR4 alone in transfected HEK 293 …; assay: FACS on transiently transfected HEK 293 cells, 15C1 at 10 µg/ml
Protocol: (§4) FIGS. 17A-17F are a series of graphs depicting the specificity of the 15C1 monoclonal antibody for TLR4. The specificity of the 15C1 antibody is shown by flow cytometry analysis of HEK 293 cells transiently transfected with either mock vector, i.e., empty vector (FIG. 17A), human TLR4 (FIG. 17B), human TLR4 and human MD-2 (FIG. 17C), rabbit TLR4 and rabbit MD-2 (FIG. 17D), human TLR4 and rabbit MD-2 (FIG. 17E), or rabbit TLR4 and human MD-2 (FIG. 17F). Cells were incubated with the 15C1 monoclonal antibody (10 μg/ml), followed by an APC-coupled α-mouse (H+L) antibody.
as §2

[8] = target: T1, human TLR4 and human MD-2 on …; assay: as above
Protocol: as §4, §2

[9] = target: T2, human TLR4/MD-2 complex on the surface …; assay: flow cytometry on TLR4/MD-2 transfected CHO cells, against an isotype matched control monoclonal antibody
From the text: FIG. 19 is a graph depicting that the VH and VL nucleotide sequence of 15C1 expressed as a chimeric MAb (“chimeric 15C1”) is capable of binding specifically to the human TLR4/MD-2 complex on the surface of transfected CHO cells. MAb binding to the TLR4/MD-2 complex is shown by flow cytometry using chimeric 15C1 or an isotype matched control monoclonal antibody at the indicated concentration.
as §3

T1 sequence (O00206 24-839, chain 1 of 2): as above
T1 sequence (Q9Y6Y9 19-160, chain 2 of 2): as the sequence (Q9Y6Y9 19-160, chain 2 of 2) above

B1: 7E3 monoclonal antibody (antibody, IgG1, V domains shown)
VH: QVTLKESGPGILQPSQTLSLTCSFSGFSLTTYNIGVGWIRQPSGKGLEWLAHIWWNDNIYYNTVLKSRLTFSKDTSNNQVFLKIASVDIADTATYYCIRMAEGRYDAMDYWGQGTSVTVSS
VL: AIQMTQSTSSLSASLGDRVTINCRASQDITNYLNWYQQKPDGTVRLLIYYTSKLHSGAPSRFSGRGSGTDYSLTISNLEQEDIATYFCQQGNTFPWTFGGGTKLEIKR
B1: binds [1]; binds [2]; no binding (tested: 10 µg/ml) [3].

B2: chimeric 7E3 MAb (antibody, V domains shown)
VH: B1 VH
VL: B1 VL
B2: binds [4].

B3: 16G7 monoclonal antibody (antibody, IgG1, V domains shown)
VH: QVKLQESGAELMKPGASVKISCKATGYKFSDYWIEWIKQRPGHGLEWIGEILPGSGSTNYNEDFKDKATFTSDTSSNTAYMQLSSLTSEDSAVYYCAKEERAYYFGYWGQGTTVTVSS
VL: DVLMTQTPLSLPVSLGDQASISCRSSQSLENSNGNTYLNWYLQKPGQSPQLLIYRVSNRFSGVLDRFSGSGSGTDFTLKISRVEAEDLGVYFCLQVTHVPPTFGAGTKLELKR
B3: binds [5]; binds [6].

B4: chimeric 18H10 MAb (antibody, V domains shown)
VH: QVQLQQSGADLVRPGALVKLSCTASGFNIKDSYIHWVKKRPEWGLEWIGWTDPENVNSIYDPRFQGKASITADTSSNTAFLQLTSLTSEDTAVYYCARGYNGVYYAMDYWGQGTTVTVSS
VL: QIVLTQSPSIMSASLGEEITLTCSASSSVIYMHWYQQKSGTSPKLLIYRTYNLASGVPSRFSGSGSGTFYSLTISSVEAEDAADYYCHQWSSFPYTFGGGTKLEIKR
B4: binds [4].

B5: 15C1 monoclonal antibody (antibody, IgG1, V domains shown)
VH: DVQLQESGPDLIQPSQSLSLTCTVTGYSITGGYSWHWIRQFPGNKLEWMGYIHYSGYTDFNPSLKTRISITRDTSKNQFFLQLNSVTTEDTATYYCARKDPSDGFPYWGQGTLVTVSA
VL: DIVMTQSPATLSVTPGDRVSLSCRASQSISDHLHWYQQKSHESPRLLIKYASHAISGIPSRFSGSGSGTDFTLSIKSVEPEDIGVYYCQNGHSFPLTFGAGTKLELKR
notes: also called 15C1 MAb; 15C1 mouse MAb
B5: binds [2]; binds [7]; binds [8].

B6: chimeric 15C1 MAb (antibody, V domains shown)
VH: B5 VH
VL: B5 VL
notes: also called chimerical 15C1
B6: binds [9].
